Laboratory results published in the supplement of paper PMC10126150.
± gives the standard deviation of the averaged measurements.

Tested on: ATP
Assay: switch fluorescence ratio, 500 uM ATP over buffer (Cy3 cluster intensity, sum of 5 cycles each) (fold (ratio)); higher = stronger signal-on switching upon ATP binding; sequences stand for … in TCGTCGGCAGCGTCAGATGTGTATAAGAGACAGTTTTTTTTTTTTTTTTTTTTTTTTT…TC
Conditions: aptamer strand: ATP DNA aptamer (quencher-CACCTGGGGGAGTATTGCGGAGGAAGG + anchor), 100 nM annealed; ATP concentration: 500 uM
Summary of the method: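 Five buffer/ATP imaging cycles were run on Cy3-labelled switching-strand clusters on a modified Illumina MiSeq flow-cell, with NaOH stripping and re-annealing between cycles. In each cycle, clusters annealed to 100 nM quencher-labelled ATP aptamer were imaged in selection buffer, then after 15 min with 500 uM ATP at 22 °C. Per cluster, the fluorescence ratio is summed target-cycle over summed buffer-cycle Cy3 intensity, averaged per switch-domain sequence. Only clusters within 100-1000 RFU were kept.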
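Note: ATP exposure 15 min at 22 °C before imaging.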

| Sequence | switch fluorescence ratio |
| --- | --- |
| TGAGGTTCGA | 0.98 ± 0.03 |
| AAATGAGCGG | 0.9824 ± 0.0046 |
| GTACCATCTG | 0.976 ± 0.02 |
| AAGTTCGCCT | 1.09 ± 0.13 |
| TAATGGGTTT | 0.999 ± 0.062 |
| ATGCATGTGC | 0.983 ± 0.01 |
| ATGTAGTGCG | 0.99 ± 0.021 |
| TTTAGAACTT | 1.01 ± 0.077 |
| AAGGGGCTTG | 0.986 ± 0.036 |
| TTTTCAATGA | 0.994 ± 0.041 |
| TTATGGTGAA | 0.956 ± 0.049 |
| ATTGGTTTGT | 0.998 ± 0.013 |
| GTGGATAGGT | 1.01 ± 0.045 |
| CTGGTGGTTT | 1.01 ± 0.0047 |
| TGGTTTGGGT | 0.986 ± 0.026 |
| ATCAGGGGTA | 1.26 ± 0.34 |
| TCGGACGGGG | 1.03 ± 0.015 |
| TTATGGTTGG | 0.995 ± 0.012 |
| GTGTGTGGGA | 1 ± 0.026 |
| GATGGGGGAG | 0.999 ± 0.018 |
| TAGACTGGTG | 1.01 ± 0.017 |
| ACTTGGTTGG | 0.9869 ± 0.00088 |
| TATGTATTAT | 0.994 ± 0.062 |

| Sequence | switch fluorescence ratio |
| --- | --- |
| AAAAAAAACC | 1.4 ± 0.33 |
| TGTTTATGTT | 0.9975 ± 0.0064 |
| GGGGTAGCGC | 0.974 ± 0.018 |
| TTGGAATTCC | 0.989 ± 0.05 |
| AAGGGACGGC | 0.9648 ± 0.0078 |
| TTTGCACATT | 1.02 ± 0.069 |
| GGATTGAGGT | 1.02 ± 0.032 |
| TGAAGCGGCG | 0.942 ± 0.023 |
| GAGAAAATCG | 1 ± 0.043 |
| TTCATGGTAT | 0.991 ± 0.031 |
| TGGGTTCTAT | 0.9874 ± 0.0077 |
| AACAGTTTTT | 0.989 ± 0.044 |
| GCGGAGGCGG | 0.976 ± 0.031 |
| GTACCTAACT | 1.2 ± 0.025 |
| CGTGTTTGCC | 1 ± 0.02 |
| GATTTAGAGC | 0.973 ± 0.037 |
| TAATTTTTAA | 0.99 ± 0.029 |
| GATTAATGGC | 1.04 ± 0.052 |
| TTATGGCTTT | 0.985 ± 0.018 |
| AGTAGTTGGC | 1.01 ± 0.12 |
| TAATTCATCG | 0.97196 ± 0.00069 |
| GGTTCCGCGG | 1.11 ± 0.025 |
| TCGGATTGGC | 0.985 ± 0.034 |

| Sequence | switch fluorescence ratio |
| --- | --- |
| CAGAGGAAGT | 1.02 ± 0.04 |
| TAACGGCATC | 1.08 ± 0.036 |
| TAAACGGGTA | 1.04 ± 0.02 |
| TTACTTATCT | 1.02 ± 0.033 |
| TAATATAGTT | 1.01 ± 0.027 |
| CGCGGGGAAG | 0.98 ± 0.053 |
| AGTGGACATC | 0.99098 ± 0.00034 |
| GCATTGGTTT | 0.982 ± 0.011 |
| GTGGTACGGA | 1.0044 ± 0.00029 |
| CGTGTAATGT | 0.985 ± 0.048 |
| CGTTGTCATT | 0.972 ± 0.036 |
| CCCCTGACAA | 1.79 ± 0.059 |
| TTTTAACCTG | 1.01 ± 0.046 |
| CCGGGGTTAT | 1.119 ± 0.0047 |
| CCTTAACGGC | 1.06 ± 0.015 |
| TCGCTTTTTG | 1.01 ± 0.027 |
| TAAGAATTCC | 1.08 ± 0.047 |
| TCAATTTGGG | 0.971 ± 0.022 |
| TGCGTTACAG | 1.01 ± 0.044 |
| TGTGATAGTG | 0.999 ± 0.053 |
| AAAGGGGGAC | 1.04 ± 0.089 |
| GGTCCATGCT | 0.961 ± 0.032 |
| ATGGTAGTAA | 1.01 ± 0.024 |

| Sequence | switch fluorescence ratio |
| --- | --- |
| AATGGGGGTA | 0.998 ± 0.034 |
| AGGAAAAATA | 0.988 ± 0.053 |
| TTGGCGGGGC | 1.02 ± 0.012 |
| TTCCCCCCAA | 1.76 ± 0.74 |
| GCTACATGGG | 1.02 ± 0.015 |
| GGGGCTGGGA | 0.986 ± 0.027 |
| ACTCCATACA | 1.21 ± 0.04 |
| GGTGTTGAGT | 0.993 ± 0.037 |
| ACGTTCTGTT | 1.02 ± 0.023 |
| TTAGTATGAC | 1.02 ± 0.042 |
| AGAGAGCGAA | 1.01 ± 0.022 |
| ATTTATTATG | 0.989 ± 0.038 |
| CGAAATGCTG | 1.09 ± 0.016 |
| AAAGGACGTG | 0.9356 ± 0.0076 |
| CTGGGAGGCA | 0.9871 ± 0.0098 |
| TGGTTTGATC | 1.01 ± 0.026 |
| GGAGTTGTGA | 0.995 ± 0.021 |
| CGTGGAACGA | 1.01 ± 0.058 |
| TGTTGGGGCG | 1.02 ± 0.069 |
| TTAGGACGAT | 0.997 ± 0.051 |
| GTAGTAGCCA | 1.01 ± 0.033 |
| GCACCAATT | 1.06 ± 0.072 |
| TTTGATTTCG | 1.01 ± 0.024 |

| Sequence | switch fluorescence ratio |
| --- | --- |
| ATAAGTGGG | 0.983 ± 0.018 |
| GGGGATAGT | 1 ± 0.015 |
| TTAGTGCGGA | 0.994 ± 0.012 |
| CCGGGTGAAG | 1.07 ± 0.063 |
| GTCGGTGTTG | 0.98952 ± 0.00042 |
| ATGTCTGTAA | 1 ± 0.013 |
| AGTATGTGGG | 0.996 ± 0.048 |
| GGTTTGCACG | 0.992 ± 0.042 |
| CAGTTGGGAT | 0.969 ± 0.026 |
| GGGTTAGTTG | 0.995 ± 0.046 |
| GTGGTGAGGT | 0.966 ± 0.02 |
| TGTAGTATCG | 1.016 ± 0.0045 |
| TTTGTTTACT | 0.99165 ± 0.00046 |
| GGGGGGCCAT | 1.01 ± 0.025 |
| ATCGTGGGGG | 1 ± 0.028 |
| GATGAAGGTG | 1.28 ± 0.061 |
| GGGTTTGCCT | 1.0216 ± 0.0002 |
| TTAATAAATG | 1 ± 0.015 |
| AACGGACGGG | 1.27 ± 0.095 |
| TAAATGTGGA | 0.972 ± 0.03 |
| GGGTTTAATA | 0.996 ± 0.034 |
| AGTGTCTATT | 0.981 ± 0.0055 |
| GAGGAGCTGG | 0.986 ± 0.051 |

| Sequence | switch fluorescence ratio |
| --- | --- |
| TAATCGTGGA | 1.03 ± 0.022 |
| ATGTATTAAG | 0.98 ± 0.015 |
| ATCCAGGGGA | 0.989 ± 0.06 |
| CGTTGTTAGC | 0.992 ± 0.022 |
| CATTGGGCGA | 0.982 ± 0.022 |
| GAATCAAAAA | 1 ± 0.088 |
| GCAGATTTGG | 0.978 ± 0.026 |
| TTTTTGATAT | 1.05 ± 0.056 |
| CGTGTCTTGA | 1.027 ± 0.0037 |
| GTTTAAATAG | 1.04 ± 0.011 |
| AGATACTGCA | 1.05 ± 0.0087 |
| TGAGAGACGG | 0.968 ± 0.063 |
| CGCTCGCCTG | 1.03 ± 0.016 |
| TTGGGTTCCG | 0.996 ± 0.057 |
| CTAATTATGG | 1.04 ± 0.014 |
| GTTTGTCTGC | 0.963 ± 0.025 |
| GTGTTAAAGG | 0.992 ± 0.013 |
| TGGTTAGAAA | 1.04 ± 0.017 |
| ATGGAGGCG | 1.03 ± 0.013 |
| GGGTACCGTA | 0.959 ± 0.068 |
| CATGGTTCGT | 0.975 ± 0.025 |
| GTATTCGGTG | 0.982 ± 0.045 |
| AGGTCTGCGG | 0.967 ± 0.025 |

| Sequence | switch fluorescence ratio |
| --- | --- |
| TTTTACGTAG | 1.09 ± 0.035 |
| TGGGGATCGG | 0.973 ± 0.025 |
| TACTCGCCGT | 1.053 ± 0.0064 |
| AGATTATGGG | 0.974 ± 0.033 |
| ACGGAATTTG | 1.04 ± 0.019 |
| TCTATTGGA | 0.9949 ± 0.0037 |
| CAAATAGGCT | 0.984 ± 0.028 |
| CAAATGGGTT | 1.01 ± 0.083 |
| GTTTGGTTGG | 1 ± 0.02 |
| CAATTTTCTG | 0.985 ± 0.057 |
| ATTGTGCATT | 0.979 ± 0.052 |
| GCCTACAACA | 1.02 ± 0.029 |
| TATTGAGCGT | 1 ± 0.044 |
| TATGTTGCAA | 1.01 ± 0.025 |
| ACACTAGGTT | 1.06 ± 0.051 |
| AATTCAACAC | 1.05 ± 0.038 |
| TAGGGGTTGG | 0.987 ± 0.03 |
| TCATGGGGTT | 1.006 ± 0.0065 |
| GAGGGGTTAC | 1.01 ± 0.05 |
